This series deals with the molecule itself. Description: cross-linking; in vitro cross-linking of purified NadR, cross-linked species resolved on SDS-PAGE; data not shown.

B1: NadR transcriptional regulator protein (NMB1843) of Neisseria meningitidis MC58, recombinant with an N-terminal histidine tag (natural protein)
chain: MPTQSKHASINIGLIQAREALMTQFRPILNQANITDQQWRIIRLLAENGTLDFQDLANQACILRPSLTGILTRLEKAGLVVRLKPSNDQRRVFLKLTAEGEKLYEEIGEEVDERYDAIEEVLGREKMLLLKDLLAELAKIEDALNS
notes: NadR (NMB1843), MarR family transcriptional regulator, N. meningitidis MC58; gene amplified from the MC58 genome with primers 1843-F (at the ATG) and 1843-R (past the stop codon), cloned as a 448 bp NdeI-BamHI fragment into pET15b; also called 1843 protein
As to B1, the “stoichiometry N” value is 2.

The record behind these values is article PMC2791445, “A Novel Phase Variation Mechanism in the Meningococcus Driven by a Ligand-Responsive Repressor and Differential Spacing of Distal Promoter Elements” (PLoS Pathogens, 2009).
